The target in assay [1] is Saccharomyces cerevisiae cytochrome c oxidase, 5A isoenzyme (strain WTCOX5A) (S. cerevisiae) (UniProt P00401).
Assay [2] addresses Saccharomyces cerevisiae cytochrome c oxidase, 5B isoenzyme (strain COX5B, COX5B downstream of the COX5A promoter) (S. cerevisiae) (UniProt P00401).
The target of assay [3] is Saccharomyces cerevisiae cytochrome c oxidase, 5B isoenzyme (strain ΔROX1ΔCOX5A, COX5B under its own promoter) (S. cerevisiae) (UniProt P00401).

For the substance “Horse heart cytochrome c (from UniProt P00004 1-105) (natural protein)”, the values for the Km for cyt c (low-affinity phase), steady-state oxygen consumption of mitos, 1.25-350 μM cyt c, 25°C, pH 6.6, 50 mM KCl, 0.05% DDM in assay [1], in assay [2] and in assay [3] were 13.9 μM, 14.5 μM and 10.8 μM, respectively.
As for “Yeast iso-1 cytochrome c (isoform-1) (from UniProt P00044 1-109) (natural protein)”, the Km for cyt c (low-affinity phase of biphasic kinetics), steady-state oxygen consumption of mitos, 1.25-350 μM cyt c, 25°C, pH 6.6, 50 mM KCl, 0.05% DDM in assay [1] was found to be 29.8 μM; in assay [2] it was 39.5 μM; in assay [3], 41.2 μM.
For “Yeast iso-2 cytochrome c (isoform-2) (from UniProt P00045 1-113) (natural protein)”, the figures for the Km for cyt c (low-affinity phase of biphasic kinetics), steady-state oxygen consumption of mitos, 1.25-350 μM cyt c, 25°C, pH 6.6, 50 mM KCl, 0.05% DDM in assay [1], in assay [2] and in assay [3] were 23.9 μM, 59.5 μM and 47.8 μM, respectively.

The values above are taken from publication PMC4255728.
